Source: US20250295796A1, “CELL PENETRATING POLYPEPTIDES (CPPS) AND THEIR USE IN HUMAN THERAPY” (RDP PHARMA AG, priority 2021, published 2025)

Experiments:
[1] = system: 4T1 breast tumor lung metastasis; assay: Organ-distribution in 4T1 breast tumor lung metastasis mouse model; conditions: four hours after i.v. 8 mg/kg, ex vivo total photon flux
Description: In vivo organ-distribution of CROMOC36-AF680 molecules in tumor containing mice. First orthotopic allograft 4T1 breast tumor lung metastasis mouse model was analyzed for CROMOC-AF680 distribution in vivo (FIG. 19A). Four hours after i.v. injection of 8 mg/kg of the CROMOC molecule labeled with the AF680 fluorescent dye, lungs containing 4T1cell metastasis were isolated and fluorescence intensity was assessed ex vivo (total photon flux shown on X-axis logarithmic scale).

[2] = system: murine Lewis lung carcinoma; assay: Lewis lung carcinoma (LLC) model, primary tumor growth and metastasis
Description: The efficacy of CROMOC36 on the Lewis lung carcinoma (LLC) model, was selected for testing the activity of CROMOC36 against primary tumor growth and metastasis formation. CROMOC36 was tested as a single agent and in combination with Cyclophosphamide (CYPP). In addition, single-agent CYPP was used as a reference compound, allowing comparison of the efficacy of CROMOC36 with a commonly used antitumor agent (summarized in FIG. 9).

[3] = system: 80 different human tumor cell lines; assay: Monolayer SRB staining assay for 72 hours, 80 human tumor cell lines; assay type: cell-based; conditions: 55/80 cell lines, SRB 72 hours
Description: Cells were harvested from exponential phase cultures, and depending on the cell line 10.000 to 30.000 cells were plated in 96-well flat-bottom microtiter plates. After a 24 h recovery period to allow cells to resume exponential growth, supernatant was discarded and 100 μl of culture medium (eight control wells/plate) or culture medium with the test compound were added by a liquid handling robotic system (Microlab® Starlet, Hamilton) and treatment continued for 72 hrs. Compounds were applied at 9 concentrations eight wells/concentration). At least three independent experiments were performed. For SRB staining, cells were fixed with SRB01 for 1h at 4° C. (final concentration of TCA=10%) washed with a plate washer (Hydroflex, Tecan©) for five times with H2O; and stained with 100 μl of SRB02 at room temperature for 10 min following 4 washes in SRB03 and finally 100 μl of developer solution SRB04 for 5 minutes with shaking. Optical density was assessed using a plate-reader (Sunrise, Tecan©) at 540 nm. […]
To analyze the cytostatic activity in different tumor cell lines, the in vitro activity of CROMOC36 was analyzed in 80 different human tumor cell lines representing the mayor tumor indications by the Monolayer Sulphorhodamine B (SRB) staining assay for 72 hours.

PATU8988T = assay: Propidium iodide monolayer assay, PATU8988T; assay type: cell-based, human; conditions: four days
Description: (§1) Monolayer Assay Propidium Iodid (PI). Cells were harvested from exponential phase cultures, counted and depending on the cell line 3.000 to 20.000 cells were plated in 96-well flat-bottom microtiter plates After a 24 h recovery period to allow cells to resume exponential growth, 10 μl of culture medium (four control wells/plate) or culture medium with the test compound were added by a liquid handling robotic system and treatment continued for four days. Compounds were applied in half-log increments at 10 concentrations in duplicate. Three independent experiments were performed. Cells were then washed with 200 μl PBS to remove dead cells followed by addition of 200 μl of a solution containing 7 μg/ml propidium iodide (PI) and 0.1% (v/v) Triton X-100. After an incubation period of 1-2 h at room temperature, fluorescence (FU) was measured using the Cytofluor 4000 microplate reader (excitation λ=530 nm, emission λ=620 nm) to quantify the amount of attached viable cells. […]
(§2) CROMOC36—in vitro activity Human pancreatic carcinoma cell lines. […] Antitumor activity was assessed after four days of CROMOC36 treatment using a propidium iodide based monolayer proliferation assay. […]

[4] = system: IMR32 human neuroblastoma xenograft; assay: IMR32 human neuroblastoma xenograft model; assay type: in vivo, mice; conditions: q14dx2
Description: FIG. 11: IMR32 s.c. implanted. Treatment on xenograft mice with advanced tumors (volume >50 mm^3). Variation in tumor volume expressed as percentage with respect to initial volume (day 0; designated as 100%). Final measurements for vehicle (PBS) and Doxorubicin groups were taken on day 42. For the remaining groups, final measurements were taken on day 63, the termination day of the experiment. Growth reduction compared to controls on day 42 (p<0.01).
The aim of this study was to assess the in vivo efficacy of CROMOC36 on a IMR32 human neuroblastoma xenograft model. CROMOC36 was administered subcutaneously (s.c.) at intervals of two weeks (q14dx2) at two different doses (32 mg/Kg) and also in combination with doxorubicin administered intravenously (i.v.) (32/kg CROMOC36+4+4 mg/Kg doxorubicin, s.c and i.v., q14dx2). Doxorubicin was also used alone as a reference compound (8 mg/kg, i.v., q14dx2). Vehicle was PBS.

PAXF 546L = assay: Propidium iodide monolayer assay, PAXF 546L; assay type: cell-based, human; conditions: four days
Description: as §1, §2

[5] = system: immortalized non-tumor cells; assay: SRB assay, cytotoxicity to non-tumor cells versus cancer cells
HEPG2 = assay: Monolayer assay, 96h treatment, HEPG2; assay type: cell-based, human; conditions: HEPG2, 96h treatment
Description: Monolayer Assay Propidium Iodid (PI). Cells were harvested from exponential phase cultures, counted and depending on the cell line 3.000 to 20.000 cells were plated in 96-well flat-bottom microtiter plates After a 24 h recovery period to allow cells to resume exponential growth, 10 μl of culture medium (four control wells/plate) or culture medium with the test compound were added by a liquid handling robotic system and treatment continued for four days. Compounds were applied in half-log increments at 10 concentrations in duplicate. Three independent experiments were performed. Cells were then washed with 200 μl PBS to remove dead cells followed by addition of 200 μl of a solution containing 7 μg/ml propidium iodide (PI) and 0.1% (v/v) Triton X-100. After an incubation period of 1-2 h at room temperature, fluorescence (FU) was measured using the Cytofluor 4000 microplate reader (excitation λ=530 nm, emission λ=620 nm) to quantify the amount of attached viable cells. Concentrations required for 50% inhibition of cell growth (IC50) were calculated by non-linear regression (log[conc. of inhibitor]versus response (% T/C)) using the analysis software GraphPad Prism®, Prism 5 for windows, version 5.01 (GraphPad Software Inc., CA).
CROMOC36—in vitro activity Human hepatocellular carcinoma cell lines IC50 values of CROMOC36 and Sorafenib, 96h treatment. […]

MIAPACA2 = assay: Propidium iodide monolayer assay, MIAPACA2; assay type: cell-based, human; conditions: MIAPACA2, four days
Description: as §1, §2

[6] = CROMOC36 4 mg/kg, q2dx5, single agent
[7] = combination of CROMOC36 and CYPP

B1: CROMOC36: single chain PvuII endonuclease fused at its C-terminus to DDM36, PEGylated final product used in the Examples (protein)
chain: MSHPDLNKLLELWPHIQEYQDLALKHGINDIFQDNGGKLLQVLLITGLTVLPGREGNDAVDNAGQEYELKSINIDLTKGFSTHHHMNPVIIAKYRQVPWIFAIYRGIAIEAIYRLEPKDLEFYYDKWERKWYSDGHKDINNPKIPVKYVMEHGTKIYGSGGSGGSSHPDLNKLLELWPHIQEYQDLALKHGINDIFQDNGGKLLQVLLITGLTVLPGREGNDAVDNAGQEYELKSINIDLTKGFSTHHHMNPVIIAKYRQVPWIFAIYRGIAIEAIYRLEPKDLEFYYDKWERKWYSDGHKDINNPKIPVKYVMEHGTKIYGNSGSGKKKKKGKGSGLGSGKKKDPLGSGLGSGKKKKKGKGSGLGSGKKKDPLGST
modifications: PEGylated; peptide, CROMOC36
For B1, the “enrichment in lungs of breast tumor metastasis containing animals versus tumor free animals” value [1] was “more than 10.000 ×”, the “inhibition of total number of metastases” value ([2]; CROMOC36 0.4 mg/kg) was 24% and the “inhibition of total number of metastases” value ([2]; CROMOC36 4 mg/kg) was 66%. The “reduction of number of large metastases” value [2, 6] was 69.1%, the “reduction of number of medium metastases” value [2, 6] was 49.2% and the “reduction of number of small metastases” value [2, 6] was 61.2%. The tolerability ([2]; LLC model) was “No major issues”, the “inhibition of number of metastases” value ([2]; combination of CROMOC36 (4 mg/kg) and CYPP (180 mg/kg)) was 81% and the “final decrease in body weight (BW) compared to the start of the experiment” value [2, 7] was 3.7%. For the same molecule, the “reduction of number of large metastases” value [2, 7] was 89.2%, the “reduction of number of medium metastases” value [2, 7] was 66.7% and the “reduction of number of small metastases” value [2, 7] was 81.1%. For the same molecule, the “tumor growth inhibition (TI), primary tumor” value ([2]; simultaneous combination of CROMOC36 and CYPP) was 85.6%, the “tumor growth inhibition (TI), primary tumor” value ([2]; single agent, CROMOC36 s.c. q2dx5) was 15.2% and the IC50 [3] was at most 100 nM. The IC50 (PATU8988T) was 2.79 nM, the “tumor growth inhibition compared to controls” value ([4]; CROMOC36 32/kg s.c. + doxorubicin 4+4 mg/Kg i.v.) was 89% and the “tumor growth inhibition (TGI) compared to controls” value ([4]; single agent, CROMOC36 32 mg/Kg s.c., doxorubicin 8 mg/kg i.v.) was 82%. For the same molecule, the IC50 (PAXF 546L) was 6.49 nM, the “times less cytotoxic to immortalized non-tumor cells than to cancer cells” value [5] was 40->100 and the IC50 (HEPG2) was 13.7 nM. It also gave an IC50 (MIAPACA2) of about 10 nM.
